# Patent US8765126B2, “Methods of treating complications and disorders associated with G-CSF administration” (priority 2011, dated 2014)
# Entries after “also recorded” stand apart in the source; their conditions may differ. Read-outs that look alike come from different tables or passages of the source.
# B1: Granulocyte colony-stimulating factor (protein, chains of the INN, looked up)
# chain: MTPLGPASSLPQSFLLKCLEQVRKIQGDGAALQEKLCATYKLCHPEELVLLGHSLGIPWAPLSSCPSQALQLAGCLSQLHSGLFLYQGLLQALEGISPELGPTLDTLQLDVADFATTIWQQMEELGMAPALQPTQGAMPAFASAFQRRAGGVLVASHLQSFLEVSYRVLRHLAQP
# Key:
# [1] = tested on: membrane MPO; assay: Flow cytometry of cell surface (membrane) MPO expression on myeloid cells; type: cell-based, human
# Procedure: (§1) Flow cytometry. Cell surface expression of E-selectin ligands and MPO was determined by indirect single-color immunostaining with HECA-452 and anti-MPO (2C7) mAbs, respectively. Cells were incubated with primary antibodies and their matched isotype controls in PBS with 2% FBS for 20 min, on ice. After successive washes with PBS and 2% FBS cells were stained with FITC-conjugated secondary antibody for HECA-452 and PE-conjugated secondary antibody for MPO. Stained cells were then washed, resuspended in PBS, and analyzed using the Cytomics FC 500 MPL flow cytometer (Beckman Coulter, Miami, Fla.).
# (§2) In vitro G-CSF treatment. Myeloid cells (10^6 cells/ml), isolated from different sources were cultured with RPMI 1640 medium (Mediatech, Inc, Manassas, Va.) with 10% FBS, 1% pen/strep and 10 ng/ml recombinant human G-CSF (Neupogen) from Amgen Mfg. Ltd., CA. Cells were maintained in culture for 72 h, at 37° C. and G-CSF aliquots were added after each 24 h period.
# (§3) Neuraminidase and DMJ treatment. Cells were isolated from the buffy coat of bone marrow aspirates after centrifugal sedimentation and red blood cell lysis. […] After extensive washes, cells were divided in equal numbers and cultured in RPMI 1640 medium, for 48 h, with or without G-CSF treatment. In parallel, a subset of cells cultured with G-CSF was treated with 1 mM deoxymannojirimycin (DMJ). The effect(s) of G-CSF and DMJ were assessed by flow cytometry analysis of surface expression of HECA-452 determinants and of MPO.
# [2] = tested on: surface MPO; assay: Detection of membrane MPO activity (surface biotinylation, streptavidin beads, OPD substrate); type: cell-based, human
# Procedure: Detection of membrane MPO activity. Aliquots of NL and ML were surface biotinylated, lyesed and membrane proteins were precipitated with streptavidin-conjugated agarose beads. The beads were incubated with a chromogenic peroxidase substrate, o-Phenylenediamine dihydrochloride (OPD) (Sigma) and the activity of surface MPO was monitored spectrophotometrically.
# [3] = tested on: TNF-α-stimulated HUVEC
# [4] = tested on: HECA-452-reactive glycans; assay: Flow cytometry of cell surface HECA-452-reactive sialofucosylated glycans on myeloid cells; type: cell-based, human
# Procedure: as §1, §2, §3
# [5] = tested on: mice with surgically-induced myocardial infarct; assay: Surgically induced myocardial infarct, echocardiographic ejection fraction; type: in vivo; conditions: 7 days post-MI, mice injected with neuraminidase-treated ML vs untreated ML
# Excerpt: Adult RAG-2/JAK-3 SCID mice were maintained on a standard mouse chow diet and water ad libitum, and housed in a temperature-controlled environment under an alternating 12-hour light/dark cycle. All animal handling procedures adhered strictly to the approved guidelines of the Institutional Animal Care and Use Committee. Mice paired by weight and sex were distributed in two groups: in one group experimental MI was induced by permanent left anterior descending artery (LAD) ligation, as previously described^67 and another group that underwent open thoracotomy without coronary ligation (sham operated). Within five hours following the surgery, mice from each group were injected via jugular vein either with PBS or different cell types: NL, ML or sialidase-treated ML (4×10^6 cells/mouse). The surgeon who performed the MI procedure and the jugular vein perfusions was blinded to the type of cells/[…] injected in each animal. Echocardiography was performed on all mice before surgery (baseline), at 3 days and 7 days following surgery using an 18 to 38 MHz linear-array transducer with a digital ultrasound system (Vevo 2100 Imaging System, VisualSonics, Toronto, Canada). Standard parasternal long- and short-axis views were obtained during each echocardiographic examination and image measurements were performed offline by an investigator blinded to animal groups and the cell types/PBS injections.
# [6] = patients receiving G-CSF; cited from earlier work
# [7] = tested on: MPO-EL; assay: MPO immunoprecipitation and western blot with E-selectin-Ig chimera / anti-MPO 3D3; type: cell-based, human
# Procedure: G-CSF induces MPO-EL expression in myeloid cells in vitro. To directly assess whether G-CSF stimulates expression of MPO-EL, freshly obtained BM, NL and ML were placed in culture and treated for 48 hours with human G-CSF at 10 ng/ml, a dose reflecting physiologic concentrations of G-CSF following in vivo administration^21,37. MPO was immunoprecipitated from equivalent cell numbers of BM, NL and ML, then resolved on SDS-PAGE and blotted with an anti-MPO Ab which predominantly recognizes the heavy chain (clone 3D3) (FIG. 4d); blots were then stripped and stained with E-Ig (FIG. 4e).
# Immunoprecipitations, SDS-PAGE and Western Blotting. Leukocytes were lysed in Buffer A (0.5 mM Tris, pH=8, 150 mM NaCl, 20 μg/ml PMSF, 0.02% sodium azide) supplemented with 1% Triton (Sigma-Aldrich, St. Louis, Mo.) and protease inhibitor cocktail (Roche Diagnostics GmbH, Mannheim, Germany). Cell lysates were precleared with rProtein G Agarose beads (Invitrogen, Carlsbad, Calif.). Immunoprecipitations were performed at 4° C. for 16 h, by incubating the precleared lysates with 2 μg antibody and a fresh batch of agarose beads blocked in advance with 1 mg/ml bovine serum albumin (Sigma-Aldrich, St. Louis, Mo.). After extensive washes, the beads were boiled with sample buffer and the released antigens or cell lysates were resolved on 7.5% Tris-HCl SDS-PAGE (Criterion™ Precast Gel, Bio-Rad Laboratories, Hercules, Calif.). In western blot experiments separated proteins were transferred to Sequi-Blot™PVDF Membrane (Bio-Rad Laboratories, Hercules, Calif.) which was blocked for 2 h with a solution of 5% Non-Fat Milk (LabScientific, Livingston, N.J.). Proteins were detected with E-selectin-Ig chimera or with anti-MPO mAb: clone 2C7 (Abcam) and clone 3D3 (a generous gift from Carrie Rice at Maine Biotechnology Services, ME). Secondary antibodies goat anti-human IgG and goat anti-mouse IgG, HRP-conjugated were detected with Lumi-Light Western Blotting Substrate, (Roche Diagnostics GmbH, Mannheim, Germany).
# In vitro G-CSF treatment. […]
molecule,measurement,setting,value
"OC[C@H]1NC[C@@H](O)[C@@H](O)[C@@H]1O [DMJ, deoxymannojirimycin, reference compound]",G-CSF-induced MPO expression,"[1]; NA-treated BM cells, G-CSF in presence of 1 mM DMJ, 48 h",significantly attenuated
same,induction of surface enzymatic activity,[2]; DMJ added to G-CSF-treated NL,prevented induction of surface enzymatic activity
same,G-CSF-induced angiotoxicity,[3]; NL treated with G-CSF and DMJ together,prevented G-CSF-induced angiotoxicity
same,G-CSF-induced expression of HECA-452-reactive glycans,[4]; NA-treated BM cells cultured 48 h with G-CSF in presence of 1 mM DMJ,markedly diminished
sialidase: Vibrio Cholerae neuraminidase used to cleave terminal sialic acid from sLex [reference compound],MPO expression,"[1]; BM cells treated with NA, cultured 48 h",did not induce MPO expression
same,ejection fraction,[5],improved ejection fraction
same,endothelial cell death,[3]; TNF-α-stimulated HUVEC in absence of leukocytes (baseline),no effect
same,endothelial cell death,[3]; co-culture with sialidase-treated ML compared to untreated ML,significantly decreased
B1,MPO membrane expression,[1]; ML treated ex vivo with G-CSF,only modestly increased
same,expression of surface MPO,[1]; NL and BM cells treated ex vivo with G-CSF,dramatically increased
same,"cutaneous leukocytoclastic vasculitis, patients affected",[6],≤ 6%
same,cell surface MPO enzymatic (peroxidase) activity,[2]; NL cultured with 10 ng/ml G-CSF for 48 hours,induced surface peroxidase activity
same,MPO-EL expression,"[7]; BM and NL, 10 ng/ml G-CSF, 48 hours",markedly induces
same,MPO quantity,"[7]; BM and NL, 10 ng/ml G-CSF, 48 hours, anti-MPO 3D3 blot",without significant increase
same,MPO-EL expression,"[7]; ML, ex vivo exposure to G-CSF",did not further increase
same,angiotoxicity,[3]; G-CSF-treated ML compared to untreated ML,no significant increase in angiotoxicity
same,endothelial cell death (cytotoxic effect),[3]; G-CSF-treated NL or BM compared to untreated NL or BM cells,enhanced cytotoxic effect; also recorded: markedly increased
same,HECA452-reactive glycans,[4]; ML treated ex vivo with G-CSF,only modest increases
same,expression of HECA-452 determinants,"[4]; NA-treated BM cells incubated with G-CSF vs without G-CSF, 48 h",marked increased expression
same,HECA452-reactive glycans,[4]; NL and BM treated ex vivo with G-CSF,significant increase
